The text below walks through data of the supplement of paper PMC5998384.

Data set [1] has as its system HeLa Kyoto. In words: solubility in G1/S (NP-40 vs SDS abundance) (log2 ratio); higher = more soluble. The following applies: cell cycle stage: G1/S.
The subject of data set [2] is HeLa Kyoto. In words: melting temperature (median over replicates), in situ; higher = more thermally stable.
Data set [3] has as its system HeLa Kyoto. As to the kind of experiment: solubility change mitosis vs G1/S (difference of NP-40 vs SDS log2 ratios) (log2 ratio difference); higher = more soluble in mitosis.
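Wherever melting temperature (median over replicates), in situ is given: HeLa Kyoto cells synchronized by double thymidine or nocodazole block, proteins quantified by TMT10plex mass spectrometry, three independent biological replicates.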
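Wherever solubility change mitosis vs G1/S (difference of NP-40 vs SDS log2 ratios) is given: synchronized HeLa Kyoto cells (double thymidine block for G1/S, nocodazole release for mitosis), protein amounts in NP-40 versus SDS lysates quantified by mass spectrometry, three biological replicates.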
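Wherever solubility in G1/S (NP-40 vs SDS abundance) is given: HeLa Kyoto cells arrested at G1/S by double thymidine block, proteins quantified by TMT10plex mass spectrometry in mild NP-40 versus SDS extracts, three biological replicates.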

Take “MSGFNFGGTGAPTGGFTFGTAKTATTTPATGFSFSTSGTGGFNFGAPFQPATSTPSTGLFSLATQTPATQTTGFTFGTATLASGGTGFSLGIGASKLNLSNTAATPAMANPSGFGLGSSNLTNAISSTVTSSQGTAPTGFVFGPSTTSVAPATTSGGFSFTGGSTAQPSGFNIGSAGNSAQPTAPATLPFTPATPAATTAGATQPAAPTPTATITSTGPSLFASIATAPTSSATTGLSLCTPVTTAGAPTAGTQGFSLKAPGAASGTSTTTSTAATATATTTSSSSTTGFALNLKPLAPAGIPSNTAAAVTAPPGPGAAAGAAASSAMTYAQLESLINKWSLELEDQERHFLQQATQVNAWDRTLIENGEKITSLHREVEKVKLDQKRLDQELDFILSQQKELEDLLSPLEELVKEQSGTIYLQHADEEREKTYKLAENIDAQLKRMAQDLKDIIEHLNTSGAPADTSDPLQQICKILNAHMDSLQWIDQNSALLQRKVEEVTKVCEGRRKEQERSFRITFD [NUP62]”: the “solubility in G1/S (log2)” value with HeLa Kyoto [1] worked out at 0.32. In addition, the figures for the melting temperature in the data set on HeLa Kyoto [2] (cell cycle stage: G1/S) and in the data set with HeLa Kyoto [2] (cell cycle stage: mitosis) were 51.8 °C and 51.7 °C, respectively. For the same sequence, the “solubility change mitosis (log2)” value in the data set on HeLa Kyoto [3] amounted to 0.107.

In the case of “MSQATKRKHVVKEVLGEHIVPSDQQQIVRVLRTPGNNLHEVETAQGQRFLVSMPSKYRKNIWIKRGDFLIVDPIEEGEKVKAEISFVLCKDHVRSLQKEGFWPEAFSEVAEKHNNRNRQTQPELPAEPQLSGEESSSEDDSDLFVNTNRRQYHESEEESEEEEAA [EIF1AD]”, the “solubility in G1/S (log2)” value in the data set on HeLa Kyoto [1] was 0.37. Besides, the melting temperature turned out to be 53.5 °C with HeLa Kyoto [2] (cell cycle stage: G1/S) and 53.3 °C with HeLa Kyoto [2] (cell cycle stage: mitosis). The “solubility change mitosis (log2)” value with HeLa Kyoto [3] was -0.0155.

For the sequence “MSSRSTKDLIKSKWGSKPSNSKSETTLEKLKGEIAHLKTSVDEITSGKGKLTDKERHRLLEKIRVLEAEKEKNAYQLTEKDKEIQRLRDQLKARYSTTTLLEQLEETTREGERREQVLKALSEEKDVLKQQLSAATSRIAELESKTNTLRLSQTVAPNCFNSSINNIHEMEIQLKDALEKNQQWLVYDQQREVYVKGLLAKIFELEKKTETAAHSLPQQTKKPESEGYLQEEKQKCYNDLLASAKKDLEVERQTITQLSFELSEFRRKYEETQKEVHNLNQLLYSQRRADVQHLEDDRHKTEKIQKLREENDIARGKLEEEKKRSEELLSQVQFLYTSLLKQQEEQTRVALLEQQMQACTLDFENEKLDRQHVQHQLHVILKELRKARNQITQLESLKQLHEFAITEPLVTFQGETENREKVAASPKSPTAALNESLVECPKCNIQYPATEHRDLLVHVEYCSK [CEP55]”, the “solubility in G1/S (log2)” value in the data set on HeLa Kyoto [1] was 0.417. The melting temperature in the data set on HeLa Kyoto [2] (cell cycle stage: G1/S) stood at 48.1 °C; with HeLa Kyoto [2] (cell cycle stage: mitosis) it was 48.9 °C. Moreover, in the data set on HeLa Kyoto [3], the “solubility change mitosis (log2)” value came to 0.238.

Regarding “MSTASSSSSSSSSQTPHPPSQRMRRSAAGSPPAVAAAGSGNGAGGGGGVGCAPAAGAGRLLQPIRATVPYQLLRGSQHSPTRPPVAAAAASLGSLPGPGAARGPSPSSPTPPAAAAPAEQAPRAKGRPRRSPESHRRSSSPERRSPGSPVCRADKAKSQQVRTSSTIRRTSSLDTITGPYLTGQWPRDPHVHYPSCMKDKATQTPSCWAEEGAEKRSHQRSASWGSADQLKEQIAKLRQQLQRSKQSSRHSKEKDRQSPLHGNHITISHTQATGSRSVPMPLSNISVPKSSVSRVPCNVEGISPELEKVFIKENNGKEEVSKPLDIPDGRRAPLPAHYRSSSTRSIDTQTPSVQERSSSCSSHSPCVSPFCPPESQDGSPCSTEDLLYDRDKDSGSSSPLPKYASSPKPNNSYMFKREPPEGCERVKVFEEMASRQPISAPLFSCPDKNKVNFIPTGSAFCPVKLLGPLLPASDLMLKNSPNSGQSSALATLTVEQLSSRVSFTSLSDDTSTAGSMEASVQQPSQQQQLLQELQGEDHISAQNYVII [GLCCI1]”, the “solubility in G1/S (log2)” value in the data set with HeLa Kyoto [1] is 0.4. For the same sequence, the melting temperature in the data set with HeLa Kyoto [2] (cell cycle stage: G1/S) was found to be 53.7 °C; in the data set with HeLa Kyoto [2] (cell cycle stage: mitosis), 54.4 °C. In addition, the “solubility change mitosis (log2)” value in the data set on HeLa Kyoto [3] is -0.0403.

For the sequence “MSVFGKLFGAGGGKAGKGGPTPQEAIQRLRDTEEMLSKKQEFLEKKIEQELTAAKKHGTKNKRAALQALKRKKRYEKQLAQIDGTLSTIEFQREALENANTNTEVLKNMGYAAKAMKAAHDNMDIDKVDELMQDIADQQELAEEISTAISKPVGFGEEFDEDELMAELEELEQEELDKNLLEISGPETVPLPNVPSIALPSKPAKKKEEEDDDMKELENWAGSM [CHMP4B]”, the “solubility in G1/S (log2)” value with HeLa Kyoto [1] is 0.507. Also, the figures for the melting temperature in the data set with HeLa Kyoto [2] (cell cycle stage: G1/S) and in the data set with HeLa Kyoto [2] (cell cycle stage: mitosis) were 55 °C and 52.5 °C, respectively. Also, in the data set on HeLa Kyoto [3], the “solubility change mitosis (log2)” value came out at 0.775.

For “MTSPEIASLSWGQMKVKGSNTTYKDCKVWPGGSRTWDWRETGTEHSPGVQPADVKEVVEKGVQTLVIGRGMSEALKVPSSTVEYLKKHGIDVRVLQTEQAVKEYNALVAQGVRVGGVFHSTC [AAMDC]”, in the data set with HeLa Kyoto [1], the “solubility in G1/S (log2)” value is 0.355. In addition, the results for the melting temperature in the data set on HeLa Kyoto [2] (cell cycle stage: G1/S) and with HeLa Kyoto [2] (cell cycle stage: mitosis) were 53.4 °C and 52.5 °C, respectively. Besides, in the data set with HeLa Kyoto [3], the “solubility change mitosis (log2)” value came out at 0.0391.

As for “MTTAARPTFEPARGGRGKGEGDLSQLSKQYSSRDLPSHTKIKYRQTTQDAPEEVRNRDFRRELEERERAAAREKNRDRPTREHTTSSSVSKKPRLDQIPAANLDADDPLTDEEDEDFEEESDDDDTAALLAELEKIKKERAEEQARKEQEQKAEEERIRMENILSGNPLLNLTGPSQPQANFKVKRRWDDDVVFKNCAKGVDDQKKDKRFVNDTLRSEFHKKFMEKYIK [CWC15]”, the “solubility in G1/S (log2)” value with HeLa Kyoto [1] was determined as 0.0823. Moreover, the melting temperature in the data set on HeLa Kyoto [2] (cell cycle stage: G1/S) was 55.4 °C; with HeLa Kyoto [2] (cell cycle stage: mitosis), 55.1 °C. Also, the “solubility change mitosis (log2)” value in the data set with HeLa Kyoto [3] worked out at 0.681.
